The record followed here is paper PMC11868491.

Data set [1] has as its target T1, His6-Crz1(N339-S678) (Saccharomyces cerevisiae BY4743, UniProt P53968 339-678). The data set is described as follows: EMSA.
Data set [2] deals with T1, His6-Crz1(N339-S678). The data set is described as follows: competition.

T1 sequence (P53968 339-678): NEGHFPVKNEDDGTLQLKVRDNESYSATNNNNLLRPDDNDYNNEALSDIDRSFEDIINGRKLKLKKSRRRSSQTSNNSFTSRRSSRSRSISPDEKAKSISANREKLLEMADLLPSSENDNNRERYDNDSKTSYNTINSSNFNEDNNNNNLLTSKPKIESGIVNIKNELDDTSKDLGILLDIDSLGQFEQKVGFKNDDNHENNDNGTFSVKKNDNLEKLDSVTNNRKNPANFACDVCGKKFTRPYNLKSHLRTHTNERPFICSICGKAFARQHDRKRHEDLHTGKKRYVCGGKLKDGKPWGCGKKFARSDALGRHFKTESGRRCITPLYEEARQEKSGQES

B1: EMSA_probe-Crz1/CMK2-F/R (DIG-labeled) (dsDNA)
DNA 1: AACGCAGCGCGAAGAGAATAATTGAGGCTTATCTTAGAACCCTGCCCCC
DNA 2: GGGGGCAGGGTTCTAAGATAAGCCTCAATTATTCTCTTCGCGCTGCGTT
For the molecule B1, the binding result in data set [1] is “binds”.

B2: EMSA_probe-Crz1/CMK2-F/R (unlabeled competitor) (dsDNA)
DNA 1: B1 DNA 1
DNA 2: B1 DNA 2
For the molecule B2, the binding result in data set [2] was “binds”.
